Laboratory results published in US20150337019A1 (MANUKAMED HOLDINGS LIMITED PARTNERSHIP, published 2015).
Like-named read-outs stand apart in the source and are kept apart here.

Legend:
[1] = molecular target: T1, Cathepsin B from bovine spleen (bovine, UniProt P07688 80-332); test: cell-based or functional assay
[2] = molecular target: T1, Cathepsin B from bovine spleen; test: cell-based or functional assay; remark: listed apart in the source

| Binder | Cathepsin B inhibition test, 2 mM peptide [1] | Cathepsin B inhibition test, 2 mM peptide [2] |
| --- | --- | --- |
| H-Phe-Thr-Lys-OH [H-FTK-OH] | 148 |  |
| H-HNIR-OH [H-HNIR-OH] | 152 |  |
| H-Thr-Asp-Lys-OH [H-TDK-OH] |  | 103 |
| H-Leu-Gln-Lys-OH (also: MGO-modified, site not given here) [MGO-modified H-LQK-OH] |  | 95.3 |
| Ac-YINR-OH [Ac-YINR-OH] | 93.1 |  |
| H-HNIR-OH (also: MGO-modified, site not given here) [MGO-modified H-HNIR-OH] | 103 |  |
| H-YINR-OH [H-YINR-OH] | 142 |  |
| Ac-Phe-Asp-Arg-OH [Ac-FDR-OH] | 85.6 |  |
| Ac-Thr-Asn-Arg-OH [Ac-TNR-OH] |  | 96.5 |
| Ac-HNIR-OH (also: MGO-modified, site not given here) [MGO-modified Ac-HNIR-OH] | 107 |  |
| H-Leu-Gln-Lys-OH [H-LQK-OH] |  | 102 |
| Ac-Ile-Asp-Arg-OH [Ac-IDR-OH] |  | 93.5 |
| Ac-Leu-Gln-Lys-OH (also: MGO-modified, site not given here) [MGO-modified Ac-LQK-OH] |  | 90.2 |
| H-IFVTMLR-OH (also: MGO-modified, site not given here) [MGO-modified H-IFVTMLR-OH] | 78.7 |  |
| Ac-Thr-Asn-Arg-OH (also: MGO-modified, site not given here) [MGO-modified Ac-TNR-OH] |  | 91.7 |
| Ac-Met-Asp-Lys-OH (also: MGO-modified, site not given here) [MGO-modified Ac-MDK-OH] |  | 99.4 |
| H-Met-Asn-Arg-OH (also: MGO-modified, site not given here) [MGO-modified H-MNR-OH] |  | 78.6 |
| Ac-IFVTMLR-OH (also: MGO-modified, site not given here) [MGO-modified Ac-IFVTMLR-OH] | 92.6 |  |
| Ac-Thr-Asp-Lys-OH (also: MGO-modified, site not given here) [MGO-modified Ac-TDK-OH] |  | 92.8 |
| Ac-Phe-Asp-Arg-OH (also: MGO-modified, site not given here) [MGO-modified Ac-FDR-OH] | 44.8 |  |
| H-Phe-Asp-Arg-OH [H-FDR-OH] | 175 |  |
| Ac-Phe-Thr-Lys-OH [Ac-FTK-OH] | 149 |  |
| H-IFVTMLR-OH [H-IFVTMLR-OH] | 80.5 |  |
| Ac-Val-Asn-Arg-OH (also: MGO-modified, site not given here) [MGO-modified Ac-VNR-OH] |  | 68.5 |
| H-Met-Asp-Arg-OH [H-MDR-OH] |  | 102 |
| Ac-Val-Asn-Arg-OH [Ac-VNR-OH] |  | 99.8 |
| Ac-Ile-Asp-Arg-OH (also: MGO-modified, site not given here) [MGO-modified Ac-IDR-OH] |  | 81.8 |

The remaining lines, values ahead:

| Cathepsin B inhibition test, 2 mM peptide [1] | Cathepsin B inhibition test, 2 mM peptide [2] | Binder |
| --- | --- | --- |
|  | 102 | Ac-Leu-Gln-Lys-OH [Ac-LQK-OH] |
| 127 |  | H-Met-Gln-Lys-OH [H-MQK-OH] |
|  | 101 | Ac-Thr-Asp-Lys-OH [Ac-TDK-OH] |
|  | 85.6 | H-Ile-Asp-Arg-OH (also: MGO-modified, site not given here) [MGO-modified H-IDR-OH] |
|  | 74.5 | H-Met-Asp-Arg-OH (also: MGO-modified, site not given here) [MGO-modified H-MDR-OH] |
|  | 101 | Ac-Met-Asn-Arg-OH [Ac-MNR-OH] |
|  | 91.9 | H-Thr-Asn-Arg-OH (also: MGO-modified, site not given here) [MGO-modified H-TNR-OH] |
| 71.2 |  | H-Phe-Asp-Arg-OH (also: MGO-modified, site not given here) [MGO-modified H-FDR-OH] |
|  | 97.8 | H-Val-Asn-Arg-OH [H-VNR-OH] |
| 99 |  | Ac-YINR-OH (also: MGO-modified, site not given here) [MGO-modified Ac-YINR-OH] |
|  | 104 | H-Met-Asp-Lys-OH [H-MDK-OH] |
| 76.6 |  | H-Phe-Thr-Lys-OH (also: MGO-modified, site not given here) [MGO-modified H-FTK-OH] |
|  | 96.8 | H-Met-His-Arg-OH [H-MHR-OH] |
| 172 |  | Ac-HNIR-OH [Ac-HNIR-OH] |
|  | 80.7 | H-Met-His-Arg-OH (also: MGO-modified, site not given here) [MGO-modified H-MHR-OH] |
|  | 98 | H-Ile-Asp-Arg-OH [H-IDR-OH] |
|  | 82.6 | H-Val-Asn-Arg-OH (also: MGO-modified, site not given here) [MGO-modified H-VNR-OH] |
|  | 88.6 | Ac-Met-Asp-Arg-OH (also: MGO-modified, site not given here) [MGO-modified Ac-MDR-OH] |
|  | 70.6 | H-Met-Asp-Lys-OH (also: MGO-modified, site not given here) [MGO-modified H-MDK-OH] |
| 79.2 |  | H-YINR-OH (also: MGO-modified, site not given here) [MGO-modified H-YINR-OH] |
|  | 110 | Ac-Met-Asp-Lys-OH [Ac-MDK-OH] |
|  | 101 | Ac-Met-His-Arg-OH [Ac-MHR-OH] |
|  | 90.1 | Ac-Met-His-Arg-OH (also: MGO-modified, site not given here) [MGO-modified Ac-MHR-OH] |
|  | 87.5 | H-Thr-Asp-Lys-OH (also: MGO-modified, site not given here) [MGO-modified H-TDK-OH] |
|  | 86.9 | Ac-Met-Asn-Arg-OH (also: MGO-modified, site not given here) [MGO-modified Ac-MNR-OH] |
| 105 |  | Ac-Phe-Thr-Lys-OH (also: MGO-modified, site not given here) [MGO-modified Ac-FTK-OH] |
| 88.3 |  | Ac-IFVTMLR-OH [Ac-IFVTMLR-OH] |
|  | 103 | H-Thr-Asn-Arg-OH [H-TNR-OH] |
|  | 107 | Ac-Met-Asp-Arg-OH [Ac-MDR-OH] |
